From publication PMC6210743, “Starch Synthesis in Ostreococcus tauri: The Starch-Binding Domains of Starch Synthase III-B Are Essential for Catalytic Activity” (Frontiers in Plant Science, 2018) come the findings set out here.

Substrate in this data set: Nc1ncnc2c1ncn2[C@@H]1O[C@H](COP(=O)(O)OP(=O)(O)O[C@H]2O[C@H](CO)[C@@H](O)[C@H](O)[C@H]2O)[C@@H](O)[C@H]1O
Briefly: Pi release by alkaline phosphatase from ADP, Malachite Green assay. Type of data set: biochemical, Ostreococcus tauri. The following applies: 2 mg/ml glycogen as acceptor, 50 mM BICINE pH 8.0, 30°C, nH 0.57. The source says:
Pi release by alkaline phosphatase from ADP, Malachite Green assay on OsttaSSIII-B CD

B1: OsttaSSIII-B CD (Ostreococcus tauri) (protein)
chain: LHVCHIAVEMAPIAKVGGLADVVTAIGRAIQDNGHLVEIILPKYQFFNNSVLLGGKEYETHFDWAGTTIRVEKCKVEGLQCFFIEPQNNMFQTDSVYGRNDDAHRFNFFCNAALEFLVRTARQPDILHCHDWSSAEVARAYWEHYHHNGLTKPKVAFTIHNMNYGQAKLGEAVHHSQVATTVSPSYAGEVRGSPVIGNNGHKFTGVRNGIDPEIWDPETDIFVPVKYNADNQEEGKAAARAELRQRAGMTGWDDKPIVGVVSRLTAQKGVHLIKHAAHHTLSRGGQFVLLGSAPDPKIQGEFNGLANQLGGEDTGFFFAFDEPLSHLMYAGCDVILVPSMFEPCGLTQMISMRYGAVPVVRATGGLRDTVFDVDNEKERAAWEVGGSTDWKTDGDMTNGFSFEGTDEGSLNYALDRCLDAFYNDREWFRSLQKRVMLQDWSWNRPANDYEELYYKMIGR
By Vmax is commonly meant the top rate of the reaction or transport when substrate is in excess. As to B1, the K0.5 was determined as 0.12 ± 0.04 mM and the Vmax is 0.76 µmol/min/mg.
